How the values were obtained:
[1] = target: T1, Shaker Kv1.1 channels (ShB-IR) (Drosophila melanogaster, UniProt P08510, DEL6-46); experiment: ShB-IR K+ currents in oocytes, two-electrode voltage clamp; assay type: cell-based; details: 24 nM recombinant ChTx
T1 construct: expressed in transfected cells; host or cells: Xenopus oocytes injected with cRNA
Experimental: For ShB-IR, holding potential was −90 mV. Leak subtraction used a P/4 protocol with a conditioning pulse to −120 mV. Voltage was stepped from −100 mV post-train to potentials ranging from −40 to 0 mV in 10 mV increments.
Adult female Xenopus were obtained from Xenopus One (Ann Arbor, Mich.). […] For experiments with ShB-IR, oocytes were injected with 0.06-1 ng cRNA. Leak currents were subtracted using a P/4 protocol; corrected traces are shown.
For these experiments, the ShB variant was used with inactivation-removed (ShB-IR).

[2] = target: T1, Shaker Kv1.1 channels (ShB-IR); details: read-out: reported Ki for inhibition of Shaker channels; cited from earlier work

T1 sequence (P08510 with tags, fused parts or gaps DEL6-46): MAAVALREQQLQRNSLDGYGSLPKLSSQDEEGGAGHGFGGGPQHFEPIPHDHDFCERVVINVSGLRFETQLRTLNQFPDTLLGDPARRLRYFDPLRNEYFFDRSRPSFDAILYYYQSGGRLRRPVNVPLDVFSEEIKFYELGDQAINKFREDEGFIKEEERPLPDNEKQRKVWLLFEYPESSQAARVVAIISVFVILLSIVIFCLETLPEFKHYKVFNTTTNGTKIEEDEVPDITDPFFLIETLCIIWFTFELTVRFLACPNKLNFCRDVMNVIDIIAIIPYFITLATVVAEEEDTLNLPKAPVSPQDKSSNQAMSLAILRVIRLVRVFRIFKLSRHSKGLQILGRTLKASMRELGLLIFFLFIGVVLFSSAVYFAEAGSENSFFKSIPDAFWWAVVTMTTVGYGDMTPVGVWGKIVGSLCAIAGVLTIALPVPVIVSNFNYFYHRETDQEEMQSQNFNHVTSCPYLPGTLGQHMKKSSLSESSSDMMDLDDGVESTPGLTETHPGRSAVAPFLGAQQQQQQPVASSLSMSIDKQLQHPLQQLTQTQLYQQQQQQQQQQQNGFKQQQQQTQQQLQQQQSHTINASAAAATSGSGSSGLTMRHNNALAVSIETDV

For charybdotoxin [ChTx], the “inhibition of ShB-IR currents” value [1] is given as 15% and the Ki [2] is given as about 200 nM.

From US8106013B2 (Georgia Tech Research Corporation, priority 2006, dated 2012)
